# Test results as given in the nanobody polyreactivity screen of Harvey et al. (2022).
# Assay: yeast display, Sf9 membrane polyspecificity reagent, FACS + sequencing; frameworks hold sequencing errors
# Method in brief: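 A synthetic nanobody library was expressed on Saccharomyces cerevisiae BJ5465 by galactose induction for 36–48 hours. The library was stained for 1 hour at 4 °C with 10% biotinylated, detergent-solubilized Sf9 membrane reagent and enriched with streptavidin microbeads before FACS. Low and high (top ~1%) gates were set on anti-HA fluorescence for expression and streptavidin fluorescence for reagent binding, and each polyreactivity label reflects the gate of origin.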
row,Sequence,polyreactivity (PSR sort gate)
1,QVQHVESGGGLVQAGGSLRLSCAASGRIFVYYAMGWYRQEPGKERELVATISSGGSTYYADSVKGRFTISRDNAKNTVYLHMNSLKPEDTAVYYCNARDWYLWSTYRSWYDYWGEGTQVTVSS,low polyreactivity
2,QVQLVESWGGIVQAGGILRLSFAAYGRIFASNAMGWYRKAPGKERELVAGISRNGGSTFYEDSVKGRYTISRDTAKNTVYLQMISLKPDDTAVYYCARYYTHSGGYRDRIYYYWGQGTQVTVSS,low polyreactivity
3,QVQLVESGGGLVQAGGSLRLSCAATGRILYYYAMVWYRQAPGKEREVVAASTSGGSTYADSVKGRFTISRDNAKNTVYLQMNSQKPEDTAVYYCNADSTVYDTEYAYWGQGTQVTVSS,low polyreactivity
4,QVQLVESGGGLVQAGGSLRLSCAASGSTTSVNAMGWYTQAPGKEREFVATISFGGGRTYYADSVKGRFTISRDNAKNTVYLQRNSRKPEDTAVYYCAAVGSRWFSQTWRDYWGQGTQVTVSS,high polyreactivity
5,QFQLVESGGGLVQAGGSLRLSFAPSGSTFSYYAMGWYRPAPGKERELVAAISSRGGSTYYADSVKGRFTISRYNAKNTFYFQMNCLKAEDTDVYYSAAVLRGPDPTSTYYSWGQGTQVTVSS,high polyreactivity
6,QVQLVESGGGLVQAGGSLRLSCAASGFIFSNNAMGWYRQAHGKERELVAAISKSGGGTSYADSVKGRFTISRDNAKNTVYFQMNSLKPEDSAVYYCAARFRQFRVDYWGQGTQVTVSS,high polyreactivity
7,QVQLVESGGGLVQAGGSLRLSCAASGSIFYPYAMGWYRQAPGKERELVAGITYRAGSTYYADSVKGRFTISRDNAKNTVYLQMNSLKPEDTAVYYCAASQSYAFDWGQGTQVTVSS,high polyreactivity
8,QVQLVESGGGLVQAGGSLRLSCAASGFTFWYYAMGWYRQAPGKERELVATITSGDSTKYADSVKGRFTISRDNAKNTVYLQMNSLKPEDTAVYYCAAEKVLPFIGYDYWGQGTQVTVSS,low polyreactivity
9,QVQLVESGGGLDQAGGSLRLSCAASGSTFNWYTMGWYRQAPGKERELVAAISLNGGRTYYADSVKGRFTISRDNAKNTVYFQMNSLKQEDTAVYYCAAQISFYFAQYNLARFRGYYWGQGTQVTVSS,high polyreactivity
10,QVQLVESWGGLVQAGGSLRLSCAASGRIFALYAMGWYRKAPGKERELVASINSRVGSTNYADSVKGRFTISRDNAKNTVYLQMNSLKPEDTAVYYCNARFVYAYQRYYWGQGTQVTVSS,high polyreactivity
11,QVQLVESGGGLVQAGGSLRLSCAASGSIFGNAMGWYRQAPGKERELVAAISRRGGRTYYADSVKGRFTISRDNAKNTVYLQMNSLKPEDTAVYYCNKYVTPWNEMDYWGQGTQVTVSS,high polyreactivity
12,QVQLVESGGGLVQAGGSLRLSCASSGRIFGSYAMGWYRQAPGKERELVAGIRSVGSTNYADSVKGRFTISRDNAKNTVFLQINSLKPEDTAVYYCAARLWHLSYAGQGGDYWGQVTQVTVSS,low polyreactivity
13,QVQLVESGGGLVQAGGSLSLICAASGSTSYRYAMGWYRQAPGKERELVAGITRSGGSTYYADSVKGRFTISRDNAKNTVYLQMNSLKPEDTAVYYCAAYYSRQYVGYGYWGQGTQVTVSS,high polyreactivity
14,QVQLVESGGGLVQAGGSLRLSCAACGSIFRRYAMGWYRQAPGKERELVASIRGGGGTYYADSVKGRFTISRDNAKNTVYLQMNSLKPEDTAVYYCAATRYLAYFRKSFYYWGQGTQVTVSS,high polyreactivity
15,QVQLVESGGGLVQAGGSLRLSCAASGSIFYVNAMGWYRQAPGKEREFVADITWSSGGRTYYADSVKGRFTISRDNAKNTVYLQMNSLKPDDTAVYYCAAPRYYYYSYDYWGQGTQVTVSS,high polyreactivity
16,QVQLVESGGGIVQAGGSLRLSCAASGGIFDSYAMGWYRQAPGKERELVADITSGGSTNYADSVKGRFTISRDNAKNTVYLQMNSLKPEDTAVYYCAKEFYYSVGVNLGDSWGQGIQVTVSS,low polyreactivity
17,QVQLVESGGGLVQAGGSLRLSCAASGSIFGTNAMGCYRQAPGKERELVAAIDGGSTTYYADSVKGRFTISRDNAKNTVYLQMNSLKPEDTAVYYCAADGTRSLNYAGYAGYEYWGQGTQVTVSS,low polyreactivity
18,QVQLVESGGGLVQAGGSLRLSCAASGSTFGHYAMGWYRPAPGKERELVAGITDTDNHELRRLCEGRFTISRDNAKNTVYLQMNSLKPEDTAVYYCIADDTYYPLGGITGYDDWGQGTQVTVSS,low polyreactivity
19,QVQLVESGGGIVQAGGSLRLSCAASGYSFFINAMGWSRQAPGKERELVAAIDLRGGSTYYADSVKGRFTISRDNAKNTVYLQMNSLKPEDTAVYYCNARARRYGGRYYYWGQGTQVTVSS,high polyreactivity
20,QVQLVESGGGLVQAGGSLRLSCAASGITFYGYAMGWYRQAPGKERELVASINSTGSTNYADSVKGRFTISRDNAKNTVYLQMNSLKPDDTAVYYCAARYRDGYRSKRKFGYWGQGTQVTVSS,high polyreactivity
21,QVQLQESVGGLVQASGSIFHVPNMGWYRQAPGNERELVAGLAGGGNTNYADIVKGRFTISRDNAKNTVYLQRNSLDTAVYYCAVVGFGRGTHIYWGQGTQVTVSS,high polyreactivity
22,QVQLVESGGGLVQAGGSLRLSCAASGSTFQRYAMGWSRQAPGKERELVAAIDTVGSTNYADSVKGRFTISRDNAKNTVYLQMNSLKPEDTAVYYCAVVTPYWSFYEQVIPSNYWGQGTQVTVSS,low polyreactivity

row,Sequence,polyreactivity (PSR sort gate)
1,QVQLVESGGGLVQAGGSLRLSCAASGRTFYRNAMGWYRQAPGKERELVATINSGGSTHYADSVKGRFTISRDNAKNSVYLQMNSLKPEDTAVYYCAARSPSYRGSLSYYWGHGTQVTVSS,high polyreactivity
2,QVQLVESGGGLVQAGGSLRLSCAASGRIFRYNAMGWYRQAPGKERELVADINSGGITNYADSVKGRFTISRDNAKNTVYFQKNSLKPEDTAVYYCNTATNLSCGYDSWGQGTQVTVSS,low polyreactivity
3,QVQLVESGGGLVQAGGSLRLSCAASGRTFPRNGMGWYRQAPGKERELVAAISWSGGRTYYADSVKGRFTISRDNAKNTVYLQMNSLKPEDTAVYYCNALYFRKGGYWGQGTQVTVSS,high polyreactivity
4,QVQLVESGGGLVQAGGSLRLSCAASGFTFRYYAMGWYRQAPGKERELVAAITSGDSTYYADSVKGRFTISRDKAKNTVYLQMNSLKPEDTAVYYCAAYSWLYEGYEYWGQGTQVTVSS,high polyreactivity
5,QVQLVESGGGLVQAGGSLRLSCAASGRTSWVNAMGWYRQAPGKERELVAAIVSGGTTKYADSVKGRFTISRDNAKNTVYLQMNSMKPEDTAVYYCAAALGLGGQKTRRYEYWGQGTQVTVSS,high polyreactivity
6,QVQLVESGGGLVQAGGSLRLSCAASGSTFSGYAMGWYRQAPGKERDLVAAITKSGGRTYYADSVKGRFTISRDNAQNTVYLQMNSLKQEDTAVYYCAKAYPGTYREYDYWGQGTQVTVSS,high polyreactivity
7,QVQLVESGGGLVQAGGSLRLSCAASGSTLAVYAKGWSRQAPGKERELVAVIDRGGSTYYADSVKGRFTISRDNAKNTVYLQLNCLKPEDTAVYFCNARRVKGYGYWGQGTQVTVSS,high polyreactivity
8,QFQLEESGGGLVQAGGSLRLSCAASGFIFTDNGMGRYRQATGKERELVAAINSDGSTYYADSVKGRFTISRDNAKNTVYLQMTSLIPEYTAVYYCAAGSFDRYFWYDYWGQGTQVTVSS,low polyreactivity
9,QVQLVESGGGLVQAGGSLRLSCAASGRTFKKNAMGWYRQAPGKERELVAAITGSGGSTYYADSVKGRFTISRDNAKKTVYLQMNSLKPEDTAVYYCAAYAYGVWHSQDCGNYWGQGTQVTVSS,low polyreactivity
10,QVQLVESGGGLVQAGGSLRLSCAASGSNFYFYAMGWYRHAPGKERELVAGITSGGITYYADSVKGRFTISRDNAKNTVYLQLNSLKPEDTAVYYCAADFTRRWSKSTPFDSWGQGTQVTVSS,high polyreactivity
11,QVQLVESGGGLVQAGGSLRLSCAASGYNFDGYAMGWYRQAPGKERELVAAINSGGGTYYADSVKGRFTISRDNAKNTVYLQMNSLKPEDTAVYYCSKYTYDYWGQGTQVTVSS,low polyreactivity
12,QVQLVESGGGLVQAGGSLRLSCAASGRIFGYNAMGWSRQAPGKERELFAAITTSGGSTYYADSVKGRFTISRDNAKNTVYLQMNSLKPEDTAVYYCARDSLQVFYPYASDDYWGQGTQVTVSS,low polyreactivity
13,QVQLVESGGGLVQAGGSLRLSCAASGRIFPSYAMGSSRQAPGKEREFVAAITWSGTDTYYADSVQGRFTISRDNAKNTVYLQMTSLKPEDTAVYYCAAEEYVEVDTTAYDYWGQGTQVTVSS,low polyreactivity
14,QVQLVESGGGLVQAGGSLRLSCAASGRTFWAYAMGWYRQAPGKERELVAVIRGSGNTYYADSVKGRFTISRDNAKNTVYLQMNSLKPEDTAVYYCAASRAVTQYSGGGYWGQGTQVTVSS,high polyreactivity
15,QDQLVDSGGGLVQAGGSLRLSCGASGSTFRKYAMGWYRQAPGQEREFVAAITWSTGTTYYADSVKGRFTISRDNAKNTVYLQMNSLKREDTAVYYCAADSQPPHDLYESIEHESWGLGTQVTVSS,low polyreactivity
16,QVQLVESCLGLVQAGGSLRLSFADSGIIIMFYSMGWYRQATGKERELLAAISASGGRTYYADSVKGRFTISRDNAKNTVYLQMNSLKPEDTAVYYCARLLPTPGKPILDYWGQGTQVTVSS,low polyreactivity
17,QVQLVESGGGIVPAGGSLRLSCAASGRSFYNYAMGWYRQAPGKERELVASISGIGGTTYYADSVKGRFTISRDNAKNTVYFQMNSLKPEDTAVYYCAARLYNWRRYGYWGQRTQVTVSS,high polyreactivity
18,QVQLVESGGGLVQAGGSLRLSCAASGGIFFSYAMGWYRQAPGKERELVAAIRTNGGTTYYADSVKGRFTISRDNAKNTVYLQMNSLKPEDTAVYYCAALPGGYYDRGEYDYWGQGTQVSVSS,low polyreactivity
19,QVQLVDSGGGLVQAGGSLRLSCAASGLTCRKYTMGWYRQAPGKERELVAAISFRGGSTYYADSVKGRFTISRDNAKNTVYLQMNSLKPEDTAVYYCNARKRYSTDPGDYWGQGTQVTVSS,high polyreactivity
20,QVQLVESGGGLVQAGGSLRLSCAASGGIIEDNMGWYRQAPGKERELVAAIDLRADSTYYADSVKGRFTISRDNAKNTVYLQMNSLKPEDTAVYYCAAGARQGVYRGGDYWGQGTQVTVSS,low polyreactivity
21,QVQLVESGGGLFQAGGSLRLSCAASGRIFGYNAMAGYRQAPGKERELVAVITYSGGSTYYADSVKGRFTISRDNAKNTVYLQMKSLKPEDTAVYYCIARPIDRYSGSGKQWPDYNYWGQGTQFTVSS,low polyreactivity
